Data reported in the Immune Epitope Database (IEDB).

Experiments:
Test in all cases: IEDB peptide-MHC binding, purified MHC/competitive/fluorescence; filed as Kd, often an IC50 or EC50 that approximates it; ≥ and ≤ were set here for values at or beyond the usual limits of such assays
Conditions in all cases: source organism: Entamoeba histolytica HM-1:IMSS
HLA-B*39:01 = biological target: HLA-B*39:01
HLA-B*51:01 = biological target: HLA-B*51:01
HLA-B*27:03 = biological target: HLA-B*27:03
HLA-B*46:01 = biological target: HLA-B*46:01
HLA-A*68:02 = biological target: HLA-A*68:02
HLA-B*40:01 = biological target: HLA-B*40:01
HLA-A*02:16 = biological target: HLA-A*02:16
HLA-B*57:01 = biological target: HLA-B*57:01

Sequence: EVIRATYPS
- Kd (HLA-B*39:01): ≥ 20 µM
- Kd (HLA-B*51:01): ≥ 20 µM
- Kd (HLA-B*27:03): ≥ 20 µM
- Kd (HLA-B*46:01): ≥ 20 µM
- Kd (HLA-A*68:02): 0.0002 µM
- Kd (HLA-B*40:01): ≥ 5 µM
- Kd (HLA-A*02:16): ≥ 20 µM
- Kd (HLA-B*57:01): ≥ 20 µM
